To fix the notation:
B1: Oxysterols receptor LXR-beta (Homo sapiens), P55055 (parent)
chain: MSSPTTSSLDTPLPGNGPPQPGAPSSSPTVKEEGPEPWPGGPDPDVPGTDEASSACSTDWVIPDPEEEPERKRKKGPAPKMLGHELCRVCGDKASGFHYNVLSCEGCKGFFRRSVVRGGARRYACRGGGTCQMDAFMRRKCQQCRLRKCKEAGMREQCVLSEEQIRKKKIRKQQQESQSQSQSPVGPQGSSSSASGPGASPGGSEAGSQGSGEGEGVQLTAAQELMIQQLVAAQLQCNKRSFSDQPKVTPWPLGADPQSRDARQQRFAHFTELAIISVQEIVDFAKQVPGFLQLGREDQIALLKASTIEIMLLETARRYNHETECITFLKDFTYSKDDFHRAGLQVEFINPIFEFSRAMRRLGLDDAEYALLIAINIFSADRPNVQEPGRVEALQQPYVEALLSYTRIKRPQDQLRFPRMLMKLVSLRTLSSVHSEQVFALRLQDKKLPPLLSEIWDVHE
partner: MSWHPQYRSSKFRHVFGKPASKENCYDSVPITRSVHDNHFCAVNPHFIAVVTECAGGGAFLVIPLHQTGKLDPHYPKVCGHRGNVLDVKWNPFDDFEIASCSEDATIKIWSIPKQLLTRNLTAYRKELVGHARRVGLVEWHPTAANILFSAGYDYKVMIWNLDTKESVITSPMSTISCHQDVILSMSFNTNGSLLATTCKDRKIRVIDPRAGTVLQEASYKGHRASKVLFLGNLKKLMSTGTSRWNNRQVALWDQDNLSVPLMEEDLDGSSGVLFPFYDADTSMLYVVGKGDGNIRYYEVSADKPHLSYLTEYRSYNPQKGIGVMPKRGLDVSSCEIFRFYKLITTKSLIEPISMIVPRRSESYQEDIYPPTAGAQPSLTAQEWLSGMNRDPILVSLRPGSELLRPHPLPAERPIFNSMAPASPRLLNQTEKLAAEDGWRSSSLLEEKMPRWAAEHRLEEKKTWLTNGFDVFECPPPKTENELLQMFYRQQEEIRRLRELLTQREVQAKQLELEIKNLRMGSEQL
B2: Oxysterols receptor LXR-beta (Homo sapiens), P55055 (parent)
chain: B1 chain
partner: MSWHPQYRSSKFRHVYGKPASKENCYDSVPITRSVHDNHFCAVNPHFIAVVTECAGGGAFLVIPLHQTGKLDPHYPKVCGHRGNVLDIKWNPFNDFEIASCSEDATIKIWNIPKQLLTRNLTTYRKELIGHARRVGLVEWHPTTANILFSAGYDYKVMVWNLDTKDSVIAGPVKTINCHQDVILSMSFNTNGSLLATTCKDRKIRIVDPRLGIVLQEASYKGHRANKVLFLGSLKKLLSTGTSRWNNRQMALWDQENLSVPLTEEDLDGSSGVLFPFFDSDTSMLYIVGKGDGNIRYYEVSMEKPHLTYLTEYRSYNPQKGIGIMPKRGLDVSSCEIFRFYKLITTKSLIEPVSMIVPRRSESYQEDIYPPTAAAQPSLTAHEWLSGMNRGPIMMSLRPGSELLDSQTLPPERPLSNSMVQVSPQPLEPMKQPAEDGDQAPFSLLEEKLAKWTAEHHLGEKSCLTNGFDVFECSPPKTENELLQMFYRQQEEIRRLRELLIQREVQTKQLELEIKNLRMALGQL
B3: Oxysterols receptor LXR-beta (Homo sapiens), P55055 (parent)
chain: B1 chain

The variants in the first test derive from B1. To be noted: with cor2a_human CORO2A.
As to MSSPTTSSLDTPLPGNGPPQPGAPSSSPTVKEEGPEPWPGGPDPDVPGTDEASSACSTDWVIPDPEEEPERKRKKGPAPKMLGHELCRVCGDKASGFHYNVLSCEGCKGFFRRSVVRGGARRYACRGGGTCQMDAFMRRKCQQCRLRKCKEAGMREQCVLSEEQIRKKKIRKQQQESQSQSQSPVGPQGSSSSASGPGASPGGSEAGSQGSGEGEGVQLTAAQELMIQQLVAAQLQCNKRSFSDQPKVTPWPLGADPQSRDARQQRFAHFTELAIISVQEIVDFAKQVPGFLQLGREDQIALLKASTIEIMLLETARRYNHETECITFLKDFTYSKDDFHRAGLQVEFINPIFEFSRAMRRLGLDDAEYALLIAINIFSADRPNVQEPGRVEALQQPYVEALLSYTRIRRPQDQLRFPRMLMKLVSLRTLSSVHSEQVFALRLQDKRLPPLLSEIWDVHE [K409R;K447R], the “effect of a mutation on the interaction” value was “disrupting interaction”.

The variants in the next test derive from B2. To be noted: with cor2a_mouse Coro2a.
In the case of MSSPTTSSLDTPLPGNGPPQPGAPSSSPTVKEEGPEPWPGGPDPDVPGTDEASSACSTDWVIPDPEEEPERKRKKGPAPKMLGHELCRVCGDKASGFHYNVLSCEGCKGFFRRSVVRGGARRYACRGGGTCQMDAFMRRKCQQCRLRKCKEAGMREQCVLSEEQIRKKKIRKQQQESQSQSQSPVGPQGSSSSASGPGASPGGSEAGSQGSGEGEGVQLTAAQELMIQQLVAAQLQCNKRSFSDQPKVTPWPLGADPQSRDARQQRFAHFTELAIISVQEIVDFAKQVPGFLQLGREDQIALLKASTIEIMLLETARRYNHETECITFLKDFTYSKDDFHRAGLQVEFINPIFEFSRAMRRLGLDDAEYALLIAINIFSADRPNVQEPGRVEALQQPYVEALLSYTRIKRPQDQLRFPRMLMKLVDLRTLSSVHSEQVFALRLQDKKLPPLLSEIWDVHE [S426D], the “effect of a mutation on the interaction” value was “disrupting interaction”.

The variants in another test derive from B3. To be noted: with senp3_mouse Senp3, Q9EP97.
senp3_mouse Senp3, Q9EP97, sequence (Q9EP97 whole entry): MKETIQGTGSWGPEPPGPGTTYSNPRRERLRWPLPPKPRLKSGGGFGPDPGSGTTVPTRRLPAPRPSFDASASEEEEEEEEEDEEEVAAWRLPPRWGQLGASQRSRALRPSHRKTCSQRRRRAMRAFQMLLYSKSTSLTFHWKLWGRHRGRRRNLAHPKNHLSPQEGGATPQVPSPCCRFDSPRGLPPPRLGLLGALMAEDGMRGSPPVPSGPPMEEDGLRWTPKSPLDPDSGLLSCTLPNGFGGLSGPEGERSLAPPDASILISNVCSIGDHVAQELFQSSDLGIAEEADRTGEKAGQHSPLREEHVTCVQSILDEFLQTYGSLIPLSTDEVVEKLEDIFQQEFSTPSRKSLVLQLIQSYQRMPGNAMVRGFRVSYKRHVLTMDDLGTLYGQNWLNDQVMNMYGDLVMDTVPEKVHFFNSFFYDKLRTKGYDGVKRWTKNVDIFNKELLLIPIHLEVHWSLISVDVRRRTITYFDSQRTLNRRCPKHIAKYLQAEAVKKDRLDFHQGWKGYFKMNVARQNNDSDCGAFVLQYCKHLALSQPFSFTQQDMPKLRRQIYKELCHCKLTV
On to MSSPTTSSLDTPLPGNGPPQPGAPSSSPTVKEEGPEPWPGGPDPDVPGTDEASSACSTDWVIPDPEEEPERKRKKGPAPKMLGHELCRVCGDKASGFHYNVLSCEGCKGFFRRSVVRGGARRYACRGGGTCQMDAFMRRKCQQCRLRKCKEAGMREQCVLSEEQIRKKKIRKQQQESQSQSQSPVGPQGSSSSASGPGASPGGSEAGSQGSGEGEGVQLTAAQELMIQQLVAAQLQCNKRSFSDQPKVTPWPLGADPQSRDARQQRFAHFTELAIISVQEIVDFAKQVPGFLQLGREDQIALLKASTIEIMLLETARRYNHETECITFLKDFTYSKDDFHRAGLQVEFINPIFEFSRAMRRLGLDDAEYALLIAINIFSADRPNVQEPGRVEALQQPYVEALLSYTRIKRPQDQLRFPRMLMKLVALRTLSSVHSEQVFALRLQDKKLPPLLSEIWDVHE [S426A], for which the “effect of a mutation on the interaction” value is “disrupting interaction”.

(Values after IntAct's records for PubMed 21331046.)
